Assay results as given in IntAct's records for PubMed 34606829.

B1: ALK tyrosine kinase receptor (Homo sapiens), Q9UM73 (parent)
chain: MGAIGLLWLLPLLLSTAAVGSGMGTGQRAGSPAAGPPLQPREPLSYSRLQRKSLAVDFVVPSLFRVYARDLLLPPSSSELKAGRPEARGSLALDCAPLLRLLGPAPGVSWTAGSPAPAEARTLSRVLKGGSVRKLRRAKQLVLELGEEAILEGCVGPPGEAAVGLLQFNLSELFSWWIRQGEGRLRIRLMPEKKASEVGREGRLSAAIRASQPRLLFQIFGTGHSSLESPTNMPSPSPDYFTWNLTWIMKDSFPFLSHRSRYGLECSFDFPCELEYSPPLHDLRNQSWSWRRIPSEEASQMDLLDGPGAERSKEMPRGSFLLLNTSADSKHTILSPWMRSSSEHCTLAVSVHRHLQPSGRYIAQLLPHNEAAREILLMPTPGKHGWTVLQGRIGRPDNPFRVALEYISSGNRSLSAVDFFALKNCSEGTSPGSKMALQSSFTCWNGTVLQLGQACDFHQDCAQGEDESQMCRKLPVGFYCNFEDGFCGWTQGTLSPHTPQWQVRTLKDARFQDHQDHALLLSTTDVPASESATVTSATFPAPIKSSPCELRMSWLIRGVLRGNVSLVLVENKTGKEQGRMVWHVAAYEGLSLWQWMVLPLLDVSDRFWLQMVAWWGQGSRAIVAFDNISISLDCYLTISGEDKILQNTAPKSRNLFERNPNKELKPGENSPRQTPIFDPTVHWLFTTCGASGPHGPTQAQCNNAYQNSNLSVEVGSEGPLKGIQIWKVPATDTYSISGYGAAGGKGGKNTMMRSHGVSVLGIFNLEKDDMLYILVGQQGEDACPSTNQLIQKVCIGENNVIEEEIRVNRSVHEWAGGGGGGGGATYVFKMKDGVPVPLIIAAGGGGRAYGAKTDTFHPERLENNSSVLGLNGNSGAAGGGGGWNDNTSLLWAGKSLQEGATGGHSCPQAMKKWGWETRGGFGGGGGGCSSGGGGGGYIGGNAASNNDPEMDGEDGVSFISPLGILYTPALKVMEGHGEVNIKHYLNCSHCEVDECHMDPESHKVICFCDHGTVLAEDGVSCIVSPTPEPHLPLSLILSVVTSALVAALVLAFSGIMIVYRRKHQELQAMQMELQSPEYKLSKLRTSTIMTDYNPNYCFAGKTSSISDLKEVPRKNITLIRGLGHGAFGEVYEGQVSGMPNDPSPLQVAVKTLPEVCSEQDELDFLMEALIISKFNHQNIVRCIGVSLQSLPRFILLELMAGGDLKSFLRETRPRPSQPSSLAMLDLLHVARDIACGCQYLEENHFIHRDIAARNCLLTCPGPGRVAKIGDFGMARDIYRASYYRKGGCAMLPVKWMPPEAFMEGIFTSKTDTWSFGVLLWEIFSLGYMPYPSKSNQEVLEFVTSGGRMDPPKNCPGPVYRIMTQCWQHQPEDRPNFAIILERIEYCTQDPDVINTALPIEYGPLVEEEEKVPVRPKDPEGVPPLLVSQQAKREEERSPAAPPPLPTTSSGKAAKKPTAAEISVRVPRGPAVEGGHVNMAFSQSNPPSELHKVHGSRNKPTSLWNPTYGSWFTEKPTKKNNPIAKKEPHDRGNLGLEGSCTVPPNVATGRLPGASLLLEPSSLTANMKEVPLFRLRHFPCGNVNYGYQQQGLPLEAATAPGAGHYEDTILKSKNSMNQPGP
B2: ALK tyrosine kinase receptor (Homo sapiens), Q9UM73 (parent)
chain: B1 chain
partner: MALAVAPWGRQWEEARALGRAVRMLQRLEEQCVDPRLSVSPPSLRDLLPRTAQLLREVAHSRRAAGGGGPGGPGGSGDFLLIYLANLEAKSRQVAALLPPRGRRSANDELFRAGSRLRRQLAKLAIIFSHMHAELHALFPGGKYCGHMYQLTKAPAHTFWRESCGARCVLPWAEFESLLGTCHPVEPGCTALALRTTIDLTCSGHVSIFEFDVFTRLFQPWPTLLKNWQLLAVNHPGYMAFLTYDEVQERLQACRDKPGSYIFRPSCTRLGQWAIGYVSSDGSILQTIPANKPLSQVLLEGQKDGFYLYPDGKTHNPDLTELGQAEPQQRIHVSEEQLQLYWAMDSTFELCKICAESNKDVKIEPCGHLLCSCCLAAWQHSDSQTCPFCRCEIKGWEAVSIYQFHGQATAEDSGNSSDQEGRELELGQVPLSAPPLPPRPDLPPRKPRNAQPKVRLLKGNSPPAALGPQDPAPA
B3: ALK tyrosine kinase receptor (Homo sapiens), Q9UM73 (parent)
chain: B1 chain
partner: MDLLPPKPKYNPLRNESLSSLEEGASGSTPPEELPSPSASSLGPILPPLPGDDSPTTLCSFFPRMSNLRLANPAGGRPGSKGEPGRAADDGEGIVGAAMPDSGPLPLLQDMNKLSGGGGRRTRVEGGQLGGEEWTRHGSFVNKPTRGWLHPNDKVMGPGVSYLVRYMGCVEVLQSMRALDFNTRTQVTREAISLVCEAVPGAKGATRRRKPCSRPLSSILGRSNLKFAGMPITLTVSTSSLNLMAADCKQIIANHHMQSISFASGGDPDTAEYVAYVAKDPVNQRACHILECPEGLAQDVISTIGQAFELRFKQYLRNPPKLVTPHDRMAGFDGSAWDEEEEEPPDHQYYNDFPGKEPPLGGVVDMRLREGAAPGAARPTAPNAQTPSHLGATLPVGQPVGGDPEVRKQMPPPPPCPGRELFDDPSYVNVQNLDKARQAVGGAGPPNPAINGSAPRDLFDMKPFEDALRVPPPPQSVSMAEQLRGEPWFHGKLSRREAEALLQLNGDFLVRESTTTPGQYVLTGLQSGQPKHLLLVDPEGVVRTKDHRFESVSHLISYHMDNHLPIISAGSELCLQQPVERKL
B4: ALK tyrosine kinase receptor (Homo sapiens), Q9UM73 (parent)
chain: B1 chain
partner: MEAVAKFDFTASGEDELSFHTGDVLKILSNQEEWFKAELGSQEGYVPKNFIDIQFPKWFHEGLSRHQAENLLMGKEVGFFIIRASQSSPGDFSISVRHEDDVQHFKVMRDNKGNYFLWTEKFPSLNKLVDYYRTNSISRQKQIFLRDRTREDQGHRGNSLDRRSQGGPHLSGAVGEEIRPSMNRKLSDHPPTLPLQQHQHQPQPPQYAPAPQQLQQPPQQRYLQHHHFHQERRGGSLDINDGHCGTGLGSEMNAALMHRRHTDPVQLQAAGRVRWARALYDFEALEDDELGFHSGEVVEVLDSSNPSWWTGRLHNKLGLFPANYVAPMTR
B5: ALK tyrosine kinase receptor (Homo sapiens), Q9UM73 (parent)
chain: B1 chain
partner: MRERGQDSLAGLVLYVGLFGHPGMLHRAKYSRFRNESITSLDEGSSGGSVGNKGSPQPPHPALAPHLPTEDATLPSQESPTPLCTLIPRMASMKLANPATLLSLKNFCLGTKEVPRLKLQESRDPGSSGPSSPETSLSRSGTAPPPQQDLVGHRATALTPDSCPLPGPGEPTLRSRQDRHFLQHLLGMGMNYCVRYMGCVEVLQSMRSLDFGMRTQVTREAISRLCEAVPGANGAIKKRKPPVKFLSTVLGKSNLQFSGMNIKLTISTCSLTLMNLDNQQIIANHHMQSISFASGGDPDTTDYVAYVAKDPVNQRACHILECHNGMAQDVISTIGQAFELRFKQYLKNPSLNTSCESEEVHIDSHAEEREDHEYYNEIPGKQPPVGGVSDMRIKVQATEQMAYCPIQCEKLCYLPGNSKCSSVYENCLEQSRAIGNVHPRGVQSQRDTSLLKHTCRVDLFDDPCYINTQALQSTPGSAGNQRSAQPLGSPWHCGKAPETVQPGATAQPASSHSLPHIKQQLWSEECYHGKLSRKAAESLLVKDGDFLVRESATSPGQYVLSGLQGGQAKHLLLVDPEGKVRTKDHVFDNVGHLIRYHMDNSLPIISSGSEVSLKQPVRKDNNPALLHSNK
B6: ALK tyrosine kinase receptor (Homo sapiens), Q9UM73 (parent)
chain: B1 chain
partner: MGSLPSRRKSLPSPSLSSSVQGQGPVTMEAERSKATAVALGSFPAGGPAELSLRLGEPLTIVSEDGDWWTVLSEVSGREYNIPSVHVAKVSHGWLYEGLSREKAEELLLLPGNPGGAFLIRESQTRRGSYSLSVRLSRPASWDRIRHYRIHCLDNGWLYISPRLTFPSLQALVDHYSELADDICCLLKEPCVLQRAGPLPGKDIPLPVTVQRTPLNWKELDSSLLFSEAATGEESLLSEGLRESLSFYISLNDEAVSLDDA
B7: ALK tyrosine kinase receptor (Homo sapiens), Q9UM73 (parent)
chain: B1 chain
partner: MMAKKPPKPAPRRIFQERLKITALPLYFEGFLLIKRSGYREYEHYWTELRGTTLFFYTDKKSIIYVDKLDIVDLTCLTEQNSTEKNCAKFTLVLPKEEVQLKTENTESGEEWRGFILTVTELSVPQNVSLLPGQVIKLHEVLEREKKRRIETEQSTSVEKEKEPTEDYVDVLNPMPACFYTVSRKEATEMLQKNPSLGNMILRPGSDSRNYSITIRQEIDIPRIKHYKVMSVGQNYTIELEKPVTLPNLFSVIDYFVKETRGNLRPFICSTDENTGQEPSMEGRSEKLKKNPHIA

Variants of: B1
Details: with abl1_human ABL1, P00519
Chain of abl1_human ABL1, P00519 (P00519 whole entry): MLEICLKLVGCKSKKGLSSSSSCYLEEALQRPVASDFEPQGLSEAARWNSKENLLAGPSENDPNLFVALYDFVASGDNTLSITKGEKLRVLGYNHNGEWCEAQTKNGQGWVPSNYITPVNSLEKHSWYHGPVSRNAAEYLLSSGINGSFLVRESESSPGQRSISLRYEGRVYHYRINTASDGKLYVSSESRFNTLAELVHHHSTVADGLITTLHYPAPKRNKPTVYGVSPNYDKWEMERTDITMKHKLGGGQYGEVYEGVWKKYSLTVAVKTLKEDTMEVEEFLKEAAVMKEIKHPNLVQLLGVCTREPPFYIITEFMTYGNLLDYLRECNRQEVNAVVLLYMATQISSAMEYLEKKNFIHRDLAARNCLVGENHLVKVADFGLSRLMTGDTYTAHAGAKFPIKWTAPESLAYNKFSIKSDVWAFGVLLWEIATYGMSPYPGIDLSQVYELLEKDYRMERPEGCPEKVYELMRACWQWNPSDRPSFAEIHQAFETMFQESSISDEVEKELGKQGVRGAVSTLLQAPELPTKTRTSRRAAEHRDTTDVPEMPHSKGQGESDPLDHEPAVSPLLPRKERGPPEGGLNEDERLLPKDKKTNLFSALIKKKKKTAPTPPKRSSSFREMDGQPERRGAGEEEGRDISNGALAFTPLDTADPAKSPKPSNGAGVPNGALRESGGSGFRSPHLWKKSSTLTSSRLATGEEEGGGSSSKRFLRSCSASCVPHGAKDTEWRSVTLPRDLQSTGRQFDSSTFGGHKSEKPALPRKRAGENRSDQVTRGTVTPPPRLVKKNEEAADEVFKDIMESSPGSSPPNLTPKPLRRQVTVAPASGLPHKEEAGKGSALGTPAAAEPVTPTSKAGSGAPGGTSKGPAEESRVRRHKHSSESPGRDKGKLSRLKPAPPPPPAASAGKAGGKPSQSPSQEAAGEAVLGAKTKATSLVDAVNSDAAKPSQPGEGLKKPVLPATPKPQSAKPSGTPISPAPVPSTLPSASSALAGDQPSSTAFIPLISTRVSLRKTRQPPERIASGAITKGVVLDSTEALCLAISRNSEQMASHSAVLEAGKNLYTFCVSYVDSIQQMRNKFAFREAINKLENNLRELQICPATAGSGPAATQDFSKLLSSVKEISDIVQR

Variant	effect of a mutation on the interaction
L1196M	increasing interaction strength
F1245C	increasing interaction strength
I1250T	decreasing interaction strength

Variants of: B1
Details: with frk_human FRK

Variant	effect of a mutation on the interaction
L1196M	increasing interaction strength
F1245C	increasing interaction strength
I1250T	decreasing interaction strength

Variants of: B1
Details: with sh24b_human SH2D4B

Variant	effect of a mutation on the interaction
L1196M	increasing interaction strength
F1245C	increasing interaction strength
I1250T	decreasing interaction strength

Variants of: B1
Details: with srms_human SRMS

Variant	effect of a mutation on the interaction
L1196M	increasing interaction strength
F1245C	increasing interaction strength
I1250T	decreasing interaction strength

Variants of: B1
Details: with sta5b_human STAT5B

Variant	effect of a mutation on the interaction
L1196M	increasing interaction strength
F1245C	increasing interaction strength
I1250T	decreasing interaction strength

Variants of: B1
Details: with syk_human KARS1, Q15046
Chain of syk_human KARS1, Q15046 (Q15046 whole entry, looked up): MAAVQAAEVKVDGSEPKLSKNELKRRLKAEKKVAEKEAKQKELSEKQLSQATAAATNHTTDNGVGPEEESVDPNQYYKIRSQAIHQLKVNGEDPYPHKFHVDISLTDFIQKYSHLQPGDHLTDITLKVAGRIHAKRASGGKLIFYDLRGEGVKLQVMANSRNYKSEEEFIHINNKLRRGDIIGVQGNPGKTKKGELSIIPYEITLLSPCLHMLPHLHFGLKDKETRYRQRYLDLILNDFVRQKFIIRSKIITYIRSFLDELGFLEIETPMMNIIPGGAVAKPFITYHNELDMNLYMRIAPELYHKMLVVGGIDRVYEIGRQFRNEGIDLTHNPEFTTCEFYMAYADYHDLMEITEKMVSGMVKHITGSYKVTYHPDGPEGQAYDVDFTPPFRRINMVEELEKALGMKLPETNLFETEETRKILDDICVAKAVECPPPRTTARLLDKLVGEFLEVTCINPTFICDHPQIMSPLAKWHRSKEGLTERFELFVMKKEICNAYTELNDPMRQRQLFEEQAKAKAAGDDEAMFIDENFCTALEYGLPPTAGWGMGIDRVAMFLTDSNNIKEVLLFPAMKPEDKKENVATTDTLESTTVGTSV

Variant	effect of a mutation on the interaction
L1196M	increasing interaction strength
F1245C	increasing interaction strength
I1250T	decreasing interaction strength

Variants of: B1
Details: with crk_human CRK

Variant	effect of a mutation on the interaction
L1196M	increasing interaction strength
F1245C	increasing interaction strength
I1250T	decreasing interaction strength

Variants of: B1
Details: with fgr_human FGR

Variant	effect of a mutation on the interaction
L1196M	increasing interaction strength
F1245C	increasing interaction strength
I1250T	decreasing interaction strength

Variants of: B1
Details: with grb14_human GRB14, Q14449
Chain of grb14_human GRB14, Q14449 (Q14449 whole entry): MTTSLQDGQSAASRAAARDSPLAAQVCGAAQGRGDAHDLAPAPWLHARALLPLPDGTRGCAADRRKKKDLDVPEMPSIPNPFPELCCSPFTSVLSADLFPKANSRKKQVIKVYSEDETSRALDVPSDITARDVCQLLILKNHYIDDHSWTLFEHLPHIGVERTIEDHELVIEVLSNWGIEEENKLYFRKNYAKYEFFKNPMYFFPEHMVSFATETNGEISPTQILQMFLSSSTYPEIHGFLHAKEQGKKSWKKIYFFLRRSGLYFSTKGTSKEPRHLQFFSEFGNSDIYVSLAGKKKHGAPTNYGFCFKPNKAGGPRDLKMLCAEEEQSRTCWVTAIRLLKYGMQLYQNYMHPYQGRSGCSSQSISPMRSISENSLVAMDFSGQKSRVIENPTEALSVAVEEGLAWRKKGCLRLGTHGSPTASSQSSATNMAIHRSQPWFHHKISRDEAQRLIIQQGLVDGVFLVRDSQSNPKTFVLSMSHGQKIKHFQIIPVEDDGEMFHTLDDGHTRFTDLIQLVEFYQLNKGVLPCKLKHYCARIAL

Variant	effect of a mutation on the interaction
L1196M	increasing interaction strength
F1245C	increasing interaction strength
I1250T	decreasing interaction strength

Variants of: B1
Details: with hck_human HCK

Variant	effect of a mutation on the interaction
L1196M	increasing interaction strength
F1245C	increasing interaction strength
I1250T	decreasing interaction strength

Variants of: B1
Details: with lyn_human LYN

Variant	effect of a mutation on the interaction
L1196M	increasing interaction strength
F1245C	increasing interaction strength
I1250T	decreasing interaction strength

Variants of: B1
Details: with nck2_human NCK2, O43639
Chain of nck2_human NCK2, O43639 (O43639 whole entry): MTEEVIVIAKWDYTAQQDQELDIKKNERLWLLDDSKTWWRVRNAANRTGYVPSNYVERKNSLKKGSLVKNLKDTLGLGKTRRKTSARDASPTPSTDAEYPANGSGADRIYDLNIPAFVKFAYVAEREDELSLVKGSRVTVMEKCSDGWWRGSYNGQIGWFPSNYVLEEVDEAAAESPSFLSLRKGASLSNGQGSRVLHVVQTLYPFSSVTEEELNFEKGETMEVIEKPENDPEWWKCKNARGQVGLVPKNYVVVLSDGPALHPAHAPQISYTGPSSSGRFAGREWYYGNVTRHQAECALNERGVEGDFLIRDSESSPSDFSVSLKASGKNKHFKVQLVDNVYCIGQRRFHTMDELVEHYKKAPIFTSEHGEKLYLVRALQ

Variant	effect of a mutation on the interaction
L1196M	increasing interaction strength
F1245C	increasing interaction strength
I1250T	decreasing interaction strength

Variants of: B1
Details: with sh2b1_human SH2B1, Q9NRF2

Variant	effect of a mutation on the interaction
L1196M	increasing interaction strength
F1245C	increasing interaction strength
I1250T	decreasing interaction strength

Variants of: B1
Details: with shb_human SHB

Variant	effect of a mutation on the interaction
L1196M	increasing interaction strength
F1245C	increasing interaction strength
I1250T	decreasing interaction strength

Variants of: B1
Details: with socs3_human SOCS3, O14543
Chain of socs3_human SOCS3, O14543 (O14543 whole entry): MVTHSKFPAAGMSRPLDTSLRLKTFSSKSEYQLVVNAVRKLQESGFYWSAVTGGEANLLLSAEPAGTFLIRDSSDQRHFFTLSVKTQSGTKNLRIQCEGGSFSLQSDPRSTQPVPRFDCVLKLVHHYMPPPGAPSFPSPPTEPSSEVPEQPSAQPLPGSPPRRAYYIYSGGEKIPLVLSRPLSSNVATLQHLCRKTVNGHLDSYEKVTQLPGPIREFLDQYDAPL

Variant	effect of a mutation on the interaction
L1196M	increasing interaction strength
F1245C	increasing interaction strength
I1250T	decreasing interaction strength

Variants of: B1
Details: with stat2_human STAT2, P52630
Chain of stat2_human STAT2, P52630 (P52630 whole entry): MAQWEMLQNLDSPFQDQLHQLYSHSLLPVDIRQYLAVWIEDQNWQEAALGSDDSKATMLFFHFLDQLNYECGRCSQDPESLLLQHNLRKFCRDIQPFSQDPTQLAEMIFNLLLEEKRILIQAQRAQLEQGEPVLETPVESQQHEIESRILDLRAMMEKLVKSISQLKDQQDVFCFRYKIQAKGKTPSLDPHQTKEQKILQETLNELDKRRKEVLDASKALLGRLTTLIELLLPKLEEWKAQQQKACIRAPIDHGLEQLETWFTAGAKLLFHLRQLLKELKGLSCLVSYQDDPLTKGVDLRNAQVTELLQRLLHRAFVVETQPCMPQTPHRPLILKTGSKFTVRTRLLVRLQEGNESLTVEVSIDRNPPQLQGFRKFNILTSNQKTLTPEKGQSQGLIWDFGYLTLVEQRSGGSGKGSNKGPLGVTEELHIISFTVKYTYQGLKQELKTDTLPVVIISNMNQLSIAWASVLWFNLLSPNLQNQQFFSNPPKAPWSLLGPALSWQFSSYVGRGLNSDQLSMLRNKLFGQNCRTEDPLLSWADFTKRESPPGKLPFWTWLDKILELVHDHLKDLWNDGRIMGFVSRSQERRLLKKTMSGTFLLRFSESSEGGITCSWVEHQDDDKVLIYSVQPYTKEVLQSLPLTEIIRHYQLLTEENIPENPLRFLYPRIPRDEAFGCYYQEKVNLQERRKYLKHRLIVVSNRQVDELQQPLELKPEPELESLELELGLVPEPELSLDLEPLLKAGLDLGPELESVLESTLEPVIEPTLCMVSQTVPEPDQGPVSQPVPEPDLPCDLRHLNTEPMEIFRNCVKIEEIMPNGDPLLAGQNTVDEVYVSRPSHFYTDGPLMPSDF

Variant	effect of a mutation on the interaction
L1196M	increasing interaction strength
F1245C	increasing interaction strength
I1250T	decreasing interaction strength

Variants of: B1
Details: with zap70_human ZAP70, P43403
Chain of zap70_human ZAP70, P43403 (P43403 whole entry): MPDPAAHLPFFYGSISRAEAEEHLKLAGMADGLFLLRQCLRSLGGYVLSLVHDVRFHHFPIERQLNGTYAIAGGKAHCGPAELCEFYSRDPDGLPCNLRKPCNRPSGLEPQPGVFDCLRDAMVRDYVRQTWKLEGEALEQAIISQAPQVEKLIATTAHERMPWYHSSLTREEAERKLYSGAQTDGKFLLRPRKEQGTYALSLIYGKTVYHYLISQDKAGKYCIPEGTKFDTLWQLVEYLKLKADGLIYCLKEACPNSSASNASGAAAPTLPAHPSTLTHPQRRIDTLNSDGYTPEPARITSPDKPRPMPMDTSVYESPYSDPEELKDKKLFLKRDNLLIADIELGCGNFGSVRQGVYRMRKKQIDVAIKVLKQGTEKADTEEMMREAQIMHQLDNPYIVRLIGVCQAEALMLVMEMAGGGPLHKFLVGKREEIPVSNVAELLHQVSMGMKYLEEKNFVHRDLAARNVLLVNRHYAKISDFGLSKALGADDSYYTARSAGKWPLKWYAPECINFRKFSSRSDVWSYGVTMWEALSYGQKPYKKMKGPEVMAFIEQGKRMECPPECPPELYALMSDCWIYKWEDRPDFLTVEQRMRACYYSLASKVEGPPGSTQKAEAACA

Variant	effect of a mutation on the interaction
L1196M	increasing interaction strength
F1245C	increasing interaction strength
I1250T	decreasing interaction strength

Variants of: B1
Details: with rack1_human RACK1, P63244

Variant	effect of a mutation on the interaction
L1196M	increasing interaction strength
F1245C	increasing interaction strength
I1250T	decreasing interaction strength

Variants of: B2
Details: with cblc_human CBLC

Variant	effect of a mutation on the interaction
L1196M	increasing interaction strength
F1245C	increasing interaction strength
I1250T	decreasing interaction strength

Variants of: B3
Details: with shc1_human SHC1, P29353

Variant	effect of a mutation on the interaction
L1196M	increasing interaction strength
F1245C	increasing interaction strength
I1250T	decreasing interaction strength

Variants of: B4
Details: with grap2_human GRAP2, O75791

Variant	effect of a mutation on the interaction
L1196M	increasing interaction strength
F1245C	increasing interaction strength
I1250T	decreasing interaction strength

Variants of: B5
Details: with shc4_human SHC4, Q6S5L8

Variant	effect of a mutation on the interaction
L1196M	increasing interaction strength
F1245C	increasing interaction strength
I1250T	decreasing interaction strength

Variants of: B6
Details: with slap2_human SLA2, Q9H6Q3

Variant	effect of a mutation on the interaction
L1196M	increasing interaction strength
F1245C	increasing interaction strength
I1250T	decreasing interaction strength

Variants of: B7
Details: with stap1_human STAP1, Q9ULZ2

Variant	effect of a mutation on the interaction
L1196M	increasing interaction strength
F1245C	increasing interaction strength
I1250T	decreasing interaction strength
